Assay results from patent US20120316071A1 (published 2012).

What was measured:
[1] = target: T1, rHuman Erythropoietin R/Fc Chimera, CF (R&D Systems Cat#963-ER) (human, UniProt P19235 25-250); assay: ECL multispot (MSD) assay, antigen spotted on plate, Fab at 0.1 µM
T1 construct: Bought recombinant protein; also called EPO R; EPO R/Fc; Fc part of the bought chimera not given
T1 sequence (looked up): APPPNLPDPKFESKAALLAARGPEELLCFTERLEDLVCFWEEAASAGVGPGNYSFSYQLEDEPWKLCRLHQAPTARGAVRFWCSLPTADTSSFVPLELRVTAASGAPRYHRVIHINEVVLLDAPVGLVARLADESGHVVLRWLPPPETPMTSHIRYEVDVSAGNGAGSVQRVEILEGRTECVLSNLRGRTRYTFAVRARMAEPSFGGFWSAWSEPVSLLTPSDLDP

[2] = target: T2, Recombinant Human DLL4 (R&D Systems Cat#1506-D4/CF) (human, UniProt Q9NR61 27-524); assay: as above
T2 construct: Bought recombinant protein; also called delta-like protein 4; rHuman DLL4

[3] = target: T3, rHuman ErbB2/Fc Chimera, CF (R&D Systems Cat#1129-ER) (human, UniProt P04626 23-652); assay: as above
T3 construct: Bought recombinant protein; also called human epidermal growth factor 2 receptor; Fc part of the bought chimera not given

[4] = target: T4, rHuman EGF R/Fc Chimera, CF (R&D Systems Cat#344-ER) (human, UniProt P00533 25-645); assay: as above
T4 construct: Bought recombinant protein; also called epidermal growth factor receptor; Fc part of the bought chimera not given

[5] = target: T5, rHuman HGF R/c-MET/Fc Chimera, CF (R&D Systems Cat#358-MT/CF) (human, UniProt P08581 25-932); assay: as above
T5 construct: Bought recombinant protein; also called HGF R/Fc; hepatocyte growth factor receptor; Fc part of the bought chimera not given

[6] = target: T6, rHuman Notch-1/Fc Chimera, CF (R&D Systems Cat#3647-TK) (human, UniProt P46531 19-526); assay: as above
T6 construct: Bought recombinant protein; Fc part of the bought chimera not given

[7] = target: T7, rHuman CD44/Fc Chimera, CF (R&D Systems Cat#3660-CD) (human, UniProt P16070 21-220); assay: as above
T7 construct: Bought recombinant protein; Fc part of the bought chimera not given

[8] = target: T8, rHuman IGF-1 sR, CF (R&D Systems Cat#391-GR) (human, UniProt P08069 31-932); assay: as above
T8 construct: Bought recombinant soluble receptor; also called insulin-like growth factor-1 soluble receptor

[9] = target: T9, rHuman P-Cadherin/Fc Chimera, CF (R&D Systems Cat#861-PC) (human, UniProt P22223 108-654); assay: as above
T9 construct: Bought recombinant protein; Fc part of the bought chimera not given

[10] = target: T1, rHuman Erythropoietin R/Fc Chimera, CF …; assay: ECL multispot (MSD) assay, antigen spotted on plate, Fab at 0.01 µM
[11] = target: T2, Recombinant Human DLL4 (R&D Systems …); assay: as above
[12] = target: T3, rHuman ErbB2/Fc Chimera, CF (R&D …); assay: as above
[13] = target: T4, rHuman EGF R/Fc Chimera, CF (R&D …); assay: as above
[14] = target: T5, rHuman HGF R/c-MET/Fc Chimera, CF (R&D …); assay: as above
[15] = target: T6, rHuman Notch-1/Fc Chimera, CF (R&D …); assay: as above
[16] = target: T7, rHuman CD44/Fc Chimera, CF (R&D Systems …); assay: as above
[17] = target: T8, rHuman IGF-1 sR, CF (R&D Systems …); assay: as above
[18] = target: T9, rHuman P-Cadherin/Fc Chimera, CF (R&D …); assay: as above
[19] = target: T10, rHuman Erythropoietin R/Fc Chimera, CF (R&D Systems Cat#963-ER) (human, UniProt P19235 25-250); assay: Multispot ECL (MSD), antigen spotted on plate, Fab 210 nM; blank spot 833
T10 construct: Bought recombinant protein; also called EPO R/Fc; Epo R; Fc part of the bought chimera not given
T10 sequence (looked up): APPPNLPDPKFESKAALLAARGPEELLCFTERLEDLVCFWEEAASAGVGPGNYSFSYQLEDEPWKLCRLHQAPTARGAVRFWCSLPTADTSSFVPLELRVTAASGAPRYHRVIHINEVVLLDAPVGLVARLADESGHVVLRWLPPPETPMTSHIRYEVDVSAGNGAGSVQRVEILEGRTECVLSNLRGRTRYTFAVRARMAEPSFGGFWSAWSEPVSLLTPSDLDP

[20] = target: T11, rHuman ErbB2/Fc Chimera, CF (R&D Systems Cat#1129-ER) (human, UniProt P04626 23-652); assay: as above
T11 construct: Bought recombinant protein; also called human epidermal growth factor 2 receptor; Fc part of the bought chimera not given

[21] = target: T12, rHuman EGF R/Fc Chimera, CF (R&D Systems Cat#344-ER) (human, UniProt P00533 25-645); assay: as above
T12 construct: Bought recombinant protein; also called epidermal growth factor receptor; Fc part of the bought chimera not given

[22] = target: T13, rHuman HGF R/c-MET/Fc Chimera, CF (R&D Systems Cat#358-MT/CF) (human, UniProt P08581 25-932); assay: as above
T13 construct: Bought recombinant protein; also called HGF R/Fc; hepatocyte growth factor receptor; Fc part of the bought chimera not given

[23] = target: T14, rHuman CD44/Fc Chimera, CF (R&D Systems Cat#3660-CD) (human, UniProt P16070 21-220); assay: as above
T14 construct: Bought recombinant protein; Fc part of the bought chimera not given

[24] = target: T10, rHuman Erythropoietin R/Fc Chimera, CF …; assay: Multispot ECL (MSD), antigen spotted on plate, Fab 3.3 nM; blank spot 359
[25] = target: T11, rHuman ErbB2/Fc Chimera, CF (R&D …); assay: as above
[26] = target: T12, rHuman EGF R/Fc Chimera, CF (R&D …); assay: as above
[27] = target: T13, rHuman HGF R/c-MET/Fc Chimera, CF (R&D …); assay: as above
[28] = target: T14, rHuman CD44/Fc Chimera, CF (R&D Systems …); assay: as above
[29] = target: T10, rHuman Erythropoietin R/Fc Chimera, CF …; assay: Multispot ECL (MSD), antigen spotted on plate, Fab 13.1 nM; blank spot 376
[30] = target: T11, rHuman ErbB2/Fc Chimera, CF (R&D …); assay: as above
[31] = target: T12, rHuman EGF R/Fc Chimera, CF (R&D …); assay: as above
[32] = target: T13, rHuman HGF R/c-MET/Fc Chimera, CF (R&D …); assay: as above
[33] = target: T14, rHuman CD44/Fc Chimera, CF (R&D Systems …); assay: as above
[34] = target: T10, rHuman Erythropoietin R/Fc Chimera, CF …; assay: Multispot ECL (MSD), antigen spotted on plate, Fab 52.5 nM; blank spot 467
[35] = target: T11, rHuman ErbB2/Fc Chimera, CF (R&D …); assay: as above
[36] = target: T12, rHuman EGF R/Fc Chimera, CF (R&D …); assay: as above
[37] = target: T13, rHuman HGF R/c-MET/Fc Chimera, CF (R&D …); assay: as above
[38] = target: T14, rHuman CD44/Fc Chimera, CF (R&D Systems …); assay: as above

B1: Fab VH1-46_IGHD6-6*01_IGHJ1*01 S102A & L6_IGKJ1*01 (Fab, V domains shown)
VH: QVQLVQSGAEVKKPGASVKVSCKASGYTFTSYYMHWVRQAPGQGLEWMGIINPSGGSTSYAQKFQGRVTMTRDTSTSTVYMELSSLRSEDTAVYYCAREEYASSSAEYFQHWGQGTLVTVSS
VL: not shown
notes: Tested as a Fab expressed in E. coli (Plasmid A: CH1, His6 and Flag tags; Plasmid C: kappa CL)
[1]
  ECL signal/noise ratio: 1.3
[2]
  ECL signal/noise ratio: 71.6
[3]
  ECL signal/noise ratio: 0.8
[4]
  ECL signal/noise ratio: 0.9
[5]
  ECL signal/noise ratio: 0.5
[6]
  ECL signal/noise ratio: 1.4
[7]
  ECL signal/noise ratio: 1.3
[8]
  ECL signal/noise ratio: 1.3
[9]
  ECL signal/noise ratio: 1
[10]
  ECL signal/noise ratio: 0.8
[11]
  ECL signal/noise ratio: 10
[12]
  ECL signal/noise ratio: 1
[13]
  ECL signal/noise ratio: 0.8
[14]
  ECL signal/noise ratio: 0.5
[15]
  ECL signal/noise ratio: 0.6
[16]
  ECL signal/noise ratio: 0.9
[17]
  ECL signal/noise ratio: 0.5
[18]
  ECL signal/noise ratio: 0.2

B2: Fab VH4-31_IGHD2-15*01_IGHJ2*01 & V1-4_IGLJ4*01 (Fab, V domains shown)
VH: QVQLQESGPGLVKPSQTLSLTCTVSGGSISSGGYYWSWIRQHPGKGLEWIGYIYYSGSTYYNPSLKSRVTISVDTSKNQFSLKLSSVTAADTAVYYCAREGYCSGGSCYSYWYFDLWGRGTLVTVSS
VL: QSALTQPASVSGSPGQSITISCTGTSSDVGGYNYVSWYQQHPGKAPKLMIYEVSNRPSGVSNRFSGSKSGNTASLTISGLQAEDEADYYCSSYTSSSTLFVFGGGTQLIIL
notes: Tested as a Fab made in E. coli; The heavy chain variable region was cloned into Plasmid A (CH1 constant region, His6 and Flag tags); The lambda light chain variable region was cloned into Plasmid E (lambda CL); Only the variable domains are tied to this Fab by name
[19]
  ECL signal at 210 nM Fab: 2120
[20]
  ECL signal at 210 nM Fab: 1980
[21]
  ECL signal at 210 nM Fab: 1620
[22]
  ECL signal at 210 nM Fab: 2060
[23]
  ECL signal at 210 nM Fab: 1400
[24]
  ECL signal at 3.3 nM Fab: 695
[25]
  ECL signal at 3.3 nM Fab: 1030
[26]
  ECL signal at 3.3 nM Fab: 847
[27]
  ECL signal at 3.3 nM Fab: 849
[28]
  ECL signal at 3.3 nM Fab: 621
[29]
  ECL signal at 13.1 nM Fab: 776
[30]
  ECL signal at 13.1 nM Fab: 930
[31]
  ECL signal at 13.1 nM Fab: 824
[32]
  ECL signal at 13.1 nM Fab: 981
[33]
  ECL signal at 13.1 nM Fab: 708
[34]
  ECL signal at 52.5 nM Fab: 1320
[35]
  ECL signal at 52.5 nM Fab: 1510
[36]
  ECL signal at 52.5 nM Fab: 1110
[37]
  ECL signal at 52.5 nM Fab: 1290
[38]
  ECL signal at 52.5 nM Fab: 897
